In patent EP4814014A1, “BINDING MOLECULE AND ANTIBODY-DRUG CONJUGATE AND USE THEREOF” (priority 2023, dated 2025):
Where a chain is given by its changes, count along the chain named. Each block holds one binder with its values, some of them ahead of it.

Key:
[1] = target: T1, human cMet-his (ECD, Met1-Thr932) (human, UniProt P08581 25-932); assay: SPR, antigen amine-coupled on GLM chip, antibody injected, 1:1 model
T1 construct: Bought; range as printed includes Met1

[2] = target: T2, cynomolgus monkey cMet-his (ECD, Met1-Thr932) (cynomolgus monkey, UniProt A0A2K5UM36 25-932); assay: as above
T2 construct: Bought; range as printed includes Met1
T2 sequence (A0A2K5UM36 entry or part of it limits assumed, form in doubt): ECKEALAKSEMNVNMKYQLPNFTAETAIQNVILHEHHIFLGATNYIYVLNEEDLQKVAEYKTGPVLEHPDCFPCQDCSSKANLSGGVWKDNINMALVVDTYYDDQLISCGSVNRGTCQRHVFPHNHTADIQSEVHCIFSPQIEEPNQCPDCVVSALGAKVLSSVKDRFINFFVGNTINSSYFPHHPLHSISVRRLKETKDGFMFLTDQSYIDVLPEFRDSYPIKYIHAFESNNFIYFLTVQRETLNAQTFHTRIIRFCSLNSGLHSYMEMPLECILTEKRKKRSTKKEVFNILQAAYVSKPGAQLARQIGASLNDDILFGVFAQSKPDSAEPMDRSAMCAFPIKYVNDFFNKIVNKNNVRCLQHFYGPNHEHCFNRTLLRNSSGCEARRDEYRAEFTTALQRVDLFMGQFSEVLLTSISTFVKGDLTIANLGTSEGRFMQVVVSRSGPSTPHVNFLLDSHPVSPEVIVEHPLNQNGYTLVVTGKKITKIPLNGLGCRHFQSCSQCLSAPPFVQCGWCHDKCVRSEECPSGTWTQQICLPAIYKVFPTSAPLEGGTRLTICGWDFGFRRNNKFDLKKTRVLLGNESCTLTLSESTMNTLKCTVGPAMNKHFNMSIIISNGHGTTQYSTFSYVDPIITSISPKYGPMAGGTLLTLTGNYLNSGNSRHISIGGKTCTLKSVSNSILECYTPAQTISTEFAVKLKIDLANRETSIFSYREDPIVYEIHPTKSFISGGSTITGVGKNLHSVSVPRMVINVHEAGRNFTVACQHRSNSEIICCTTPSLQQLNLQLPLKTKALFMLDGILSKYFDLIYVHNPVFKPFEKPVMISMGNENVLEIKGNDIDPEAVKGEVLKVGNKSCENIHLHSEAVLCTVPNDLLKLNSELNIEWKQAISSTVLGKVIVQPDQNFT

[3] = target: T3, cynomolgus monkey EGFR-his (ECD, Met1-Ser645) (cynomolgus monkey, UniProt A0A2K5WK39 1-645); assay: as above
T3 construct: range 1-645; Bought; range as printed includes Met1

[4] = target: T4, human EGFR-his (ECD, Met1-Ser645) (human, UniProt P00533 25-645); assay: as above
T4 construct: range 1-645; Bought; range as printed includes Met1

human EGFR on cells = target: T5, human EGFR on cells (human, UniProt P00533 25-1210); assay: FACS, VHH-His on MDA-MB-468 cells
T5 construct: whole, on cells; the cell line is named under assay; also called CHO-S-EGFR; CHOK1-huEGFR

T1 sequence (P08581 25-932): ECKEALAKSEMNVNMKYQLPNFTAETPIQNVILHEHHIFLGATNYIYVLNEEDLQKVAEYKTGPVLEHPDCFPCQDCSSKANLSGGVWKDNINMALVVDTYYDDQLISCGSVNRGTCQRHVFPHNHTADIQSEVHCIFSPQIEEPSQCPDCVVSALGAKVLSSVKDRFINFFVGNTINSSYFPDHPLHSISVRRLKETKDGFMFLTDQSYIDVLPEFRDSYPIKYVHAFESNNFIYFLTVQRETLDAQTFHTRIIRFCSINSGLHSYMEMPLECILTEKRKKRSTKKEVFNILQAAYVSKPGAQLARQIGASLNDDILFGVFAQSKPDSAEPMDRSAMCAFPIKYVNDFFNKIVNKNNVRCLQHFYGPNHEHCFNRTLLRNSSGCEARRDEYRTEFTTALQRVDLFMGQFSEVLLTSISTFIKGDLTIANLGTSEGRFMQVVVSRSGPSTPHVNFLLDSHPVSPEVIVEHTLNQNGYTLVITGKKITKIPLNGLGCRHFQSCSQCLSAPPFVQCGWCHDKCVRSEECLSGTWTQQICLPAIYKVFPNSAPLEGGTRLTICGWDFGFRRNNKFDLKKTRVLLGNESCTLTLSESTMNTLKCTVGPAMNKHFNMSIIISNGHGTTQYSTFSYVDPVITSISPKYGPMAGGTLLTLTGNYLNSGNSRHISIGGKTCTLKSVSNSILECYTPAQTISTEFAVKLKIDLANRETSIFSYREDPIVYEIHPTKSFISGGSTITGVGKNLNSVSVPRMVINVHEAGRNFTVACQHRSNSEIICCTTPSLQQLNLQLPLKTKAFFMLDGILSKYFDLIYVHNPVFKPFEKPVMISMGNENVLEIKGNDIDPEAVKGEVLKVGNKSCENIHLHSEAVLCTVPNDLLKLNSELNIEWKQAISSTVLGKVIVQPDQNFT

B1: V-13 (10A1-9A2-7A12) (bispecific antibody)
chain: QVQLVESGGGLVQAGGSLRLSCAASGRTGSLHAMGWFRQAPGKERERVATLNLSDGSAVTADSVKGRFTISTDNTKNSVYLQMNSLKPEDTAVYYCTASRSPSGIRYYKPDYWGQGTQVTVSSGGGGSQSQLAESGGGLVQSGGSLGLSCVASGFTISRSIMSWYRQPPGKERDWVASIGSAGNTNYVDSVKGRFTISRDVAKNTVYLQMNSLKPEDTAVYYCKTTLAVSFSEYWGQGTQVTVSSGGGGSGGGGSEVQLVESGGGLVQAGGSLRLSCVASGNIFSSNHMGWFRQAPGKQREFIAYITTREITNYADSVKGRFTISRDNTKNTVYLQMNVLKPEDTAVYYCIADQSREIRRSWGQGTQVTVSS
notes: Single-chain trispecific anti-EGFR/cMet antibody
Kd [1]: 2.72 nM
koff [1]: 0.000825 s⁻¹
kon [1]: 304000 M⁻¹ s⁻¹
Kd [2]: 1.91 nM
koff [2]: 0.000381 s⁻¹
kon [2]: 200000 M⁻¹ s⁻¹
Kd [3]: 37.4 nM
koff [3]: 0.0162 s⁻¹
kon [3]: 433000 M⁻¹ s⁻¹
Kd [4]: 48.9 nM
koff [4]: 0.0135 s⁻¹
kon [4]: 276000 M⁻¹ s⁻¹

B3: V-n9B8 anti-EGFR VHH-His (VHH, not shown: small tags and cut ends)
VHH: QVQLVESGGGLVQPGGSLRLSCAASGLTFSYYAMAWFRQAPGKEREFVAAINWNGGNTYNTDSVKGRFTISRDNAKNTVYLQMNSLKPEDTAVYYCAVRYNSASYLVARSSDYNYWGQGTLVTVSS
notes: Monovalent parent VHH
EC50 (human EGFR on cells): 2.04 nM
Maximum MFI value (human EGFR on cells): 94600 MFI

B7: V-3 (5B10-7A12-9A2) (bispecific antibody)
chain: AVQLVDSGGGLVQPGGSLRLDCSASGTIIGTYTMAWYRQAPGKQREMVAIITPGGGSHHADSVKGRFTISRDNGKSTVYLQMSSLKFEDTAVYYCNAKARWGTTEYWGQGTQVTVSSGGGGSEVQLVESGGGLVQAGGSLRLSCVASGNIFSSNHMGWFRQAPGKQREFIAYITTREITNYADSVKGRFTISRDNTKNTVYLQMNVLKPEDTAVYYCIADQSREIRRSWGQGTQVTVSSGGGGSGGGGSQSQLAESGGGLVQSGGSLGLSCVASGFTISRSIMSWYRQPPGKERDWVASIGSAGNTNYVDSVKGRFTISRDVAKNTVYLQMNSLKPEDTAVYYCKTTLAVSFSEYWGQGTQVTVSS
notes: as for B1
Kd [1]: 8.61 nM
koff [1]: 0.00158 s⁻¹
kon [1]: 183000 M⁻¹ s⁻¹
Kd [2]: 5.99 nM
koff [2]: 0.00106 s⁻¹
kon [2]: 176000 M⁻¹ s⁻¹
Kd [3]: 21.8 nM
koff [3]: 0.00246 s⁻¹
kon [3]: 112000 M⁻¹ s⁻¹
Kd [4]: 25.1 nM
koff [4]: 0.003 s⁻¹
kon [4]: 119000 M⁻¹ s⁻¹

B8: zn10A1.m6 (VHH, not shown: small tags and cut ends)
VHH: QVQLVESGGGLVQPGGSLRLSCAASGRTGSLHAMGWFRQAPGKERERVATLNLSDGSAVTADSVKGRFTISTDNSKNSVYLQMNSLRAEDTAVYYCTASRSPSGIRYYKPDYWGQGTLVTVSS
Maximum MFI value (human EGFR on cells): 9680 MFI

B10: pn10A1.m2 (VHH, not shown: small tags and cut ends)
VHH: B8 VHH with P14A, S54A, S75T, R87K, A88P, L118Q
Maximum MFI value (human EGFR on cells): 3770 MFI

B13: pn10A1.m1 (VHH, not shown: small tags and cut ends)
VHH: B8 VHH with P14A, N52Q, S75T, R87K, A88P, L118Q
Maximum MFI value (human EGFR on cells): 10300 MFI

B14: pn10A1.m4 (VHH, not shown: small tags and cut ends)
VHH: B8 VHH with P14A, D55E, S75T, R87K, A88P, L118Q
Maximum MFI value (human EGFR on cells): 5260 MFI

B16: zn5B10.m18 (VHH, not shown: small tags and cut ends)
VHH: EVQLVESGGGLVQPGGSLRLSCSASGTIIGTYTMAWYRQAPGKQREMVAIITPGGGSHHADSVKGRFTISRDNSKSTVYLQMSSLRAEDTAVYYCNAKARWGTTEYWGQGTLVTVSS
notes: Humanized anti-EGFR VHH-His
EC50 (human EGFR on cells): 1.3 nM
Maximum MFI value (human EGFR on cells): 71100 MFI

B18: zn5B10.m20 (VHH, not shown: small tags and cut ends)
VHH: B16 VHH with S76N, V78L
notes: Humanized anti-EGFR VHH-His; also called hu5B10
EC50 (human EGFR on cells): 0.219 nM
Maximum MFI value (human EGFR on cells): 59200 MFI

B21: zn5B10.m21 (VHH, not shown: small tags and cut ends)
VHH: B16 VHH with S74G, S76N, V78L
notes: Humanized anti-EGFR VHH-His
EC50 (human EGFR on cells): 0.429 nM
Maximum MFI value (human EGFR on cells): 58700 MFI

B22: zn5B10.m16 (VHH, not shown: small tags and cut ends)
VHH: B16 VHH with S23A, S76N, V78L, S83N, L112M
notes: Humanized anti-EGFR VHH-His
EC50 (human EGFR on cells): 3.13 nM
Maximum MFI value (human EGFR on cells): 76800 MFI

B23: V-1 (5B10-9A2-7A12) (bispecific antibody)
chain: AVQLVDSGGGLVQPGGSLRLDCSASGTIIGTYTMAWYRQAPGKQREMVAIITPGGGSHHADSVKGRFTISRDNGKSTVYLQMSSLKFEDTAVYYCNAKARWGTTEYWGQGTQVTVSSGGGGSQSQLAESGGGLVQSGGSLGLSCVASGFTISRSIMSWYRQPPGKERDWVASIGSAGNTNYVDSVKGRFTISRDVAKNTVYLQMNSLKPEDTAVYYCKTTLAVSFSEYWGQGTQVTVSSGGGGSGGGGSEVQLVESGGGLVQAGGSLRLSCVASGNIFSSNHMGWFRQAPGKQREFIAYITTREITNYADSVKGRFTISRDNTKNTVYLQMNVLKPEDTAVYYCIADQSREIRRSWGQGTQVTVSS
notes: as for B1
Kd [1]: 9.81 nM
koff [1]: 0.00132 s⁻¹
kon [1]: 135000 M⁻¹ s⁻¹
Kd [2]: 6.43 nM
koff [2]: 0.000855 s⁻¹
kon [2]: 133000 M⁻¹ s⁻¹
Kd [3]: 27.8 nM
koff [3]: 0.00206 s⁻¹
kon [3]: 74100 M⁻¹ s⁻¹
Kd [4]: 31.7 nM
koff [4]: 0.00354 s⁻¹
kon [4]: 112000 M⁻¹ s⁻¹

Continued, values first:

Kd [1]: 10.2 nM
koff [1]: 0.00133 s⁻¹
kon [1]: 130000 M⁻¹ s⁻¹
Kd [2]: 6.59 nM
koff [2]: 0.000789 s⁻¹
kon [2]: 120000 M⁻¹ s⁻¹
Kd [3]: 0.00135 nM
koff [3]: 1.25e-07 s⁻¹
kon [3]: 93200 M⁻¹ s⁻¹
Kd [4]: 0.0128 nM
koff [4]: 1.17e-06 s⁻¹
kon [4]: 91600 M⁻¹ s⁻¹
B2: V-7 (9B8-9A2-7A12) (bispecific antibody)
chain: QVQLVESGGGLVQPGGSLRLSCAASGLTFSYYAMAWFRQAPGKEREFVAAINWNGGNTYNTDSVKGRFTISRDNAKNTVYLQMNSLKPEDTAVYYCAVRYNSASYLVARSSDYNYWGQGTLVTVSSGGGGSQSQLAESGGGLVQSGGSLGLSCVASGFTISRSIMSWYRQPPGKERDWVASIGSAGNTNYVDSVKGRFTISRDVAKNTVYLQMNSLKPEDTAVYYCKTTLAVSFSEYWGQGTQVTVSSGGGGSGGGGSEVQLVESGGGLVQAGGSLRLSCVASGNIFSSNHMGWFRQAPGKQREFIAYITTREITNYADSVKGRFTISRDNTKNTVYLQMNVLKPEDTAVYYCIADQSREIRRSWGQGTQVTVSS
notes: as for B1

EC50 (human EGFR on cells): 1.43 nM
Maximum MFI value (human EGFR on cells): 57100 MFI
B4: zn9B8.m4 (VHH, not shown: small tags and cut ends)
VHH: B3 VHH with Q1E, V5L, A75S, K87R, P88S
notes: Humanized anti-EGFR VHH-His

Kd [1]: 14.4 nM
koff [1]: 0.00167 s⁻¹
kon [1]: 116000 M⁻¹ s⁻¹
Kd [2]: 10.2 nM
koff [2]: 0.0011 s⁻¹
kon [2]: 108000 M⁻¹ s⁻¹
Kd [3]: 0.0255 nM
koff [3]: 1.95e-06 s⁻¹
kon [3]: 76400 M⁻¹ s⁻¹
Kd [4]: 0.0027 nM
koff [4]: 2.35e-07 s⁻¹
kon [4]: 86900 M⁻¹ s⁻¹
B5: V-9 (9B8-7A12-9A2) (bispecific antibody)
chain: QVQLVESGGGLVQPGGSLRLSCAASGLTFSYYAMAWFRQAPGKEREFVAAINWNGGNTYNTDSVKGRFTISRDNAKNTVYLQMNSLKPEDTAVYYCAVRYNSASYLVARSSDYNYWGQGTLVTVSSGGGGSEVQLVESGGGLVQAGGSLRLSCVASGNIFSSNHMGWFRQAPGKQREFIAYITTREITNYADSVKGRFTISRDNTKNTVYLQMNVLKPEDTAVYYCIADQSREIRRSWGQGTQVTVSSGGGGSGGGGSQSQLAESGGGLVQSGGSLGLSCVASGFTISRSIMSWYRQPPGKERDWVASIGSAGNTNYVDSVKGRFTISRDVAKNTVYLQMNSLKPEDTAVYYCKTTLAVSFSEYWGQGTQVTVSS
notes: as for B1

Kd [1]: 6.61 nM
koff [1]: 0.00125 s⁻¹
kon [1]: 189000 M⁻¹ s⁻¹
Kd [2]: 4.49 nM
koff [2]: 0.000831 s⁻¹
kon [2]: 185000 M⁻¹ s⁻¹
Kd [3]: 22.8 nM
koff [3]: 0.00764 s⁻¹
kon [3]: 335000 M⁻¹ s⁻¹
Kd [4]: 28.3 nM
koff [4]: 0.00943 s⁻¹
kon [4]: 334000 M⁻¹ s⁻¹
B6: V-15 (10A1-7A12-9A2) (bispecific antibody)
chain: QVQLVESGGGLVQAGGSLRLSCAASGRTGSLHAMGWFRQAPGKERERVATLNLSDGSAVTADSVKGRFTISTDNTKNSVYLQMNSLKPEDTAVYYCTASRSPSGIRYYKPDYWGQGTQVTVSSGGGGSEVQLVESGGGLVQAGGSLRLSCVASGNIFSSNHMGWFRQAPGKQREFIAYITTREITNYADSVKGRFTISRDNTKNTVYLQMNVLKPEDTAVYYCIADQSREIRRSWGQGTQVTVSSGGGGSGGGGSQSQLAESGGGLVQSGGSLGLSCVASGFTISRSIMSWYRQPPGKERDWVASIGSAGNTNYVDSVKGRFTISRDVAKNTVYLQMNSLKPEDTAVYYCKTTLAVSFSEYWGQGTQVTVSS
notes: as for B1

Maximum MFI value (human EGFR on cells): 5790 MFI
B9: pn10A1.m6 (VHH, not shown: small tags and cut ends)
VHH: B8 VHH with P14A, G56A, S75T, R87K, A88P, L118Q

Maximum MFI value (human EGFR on cells): 27400 MFI
B11: pn10A1.m5 (VHH, not shown: small tags and cut ends)
VHH: B8 VHH with P14A, G56V, S75T, R87K, A88P, L118Q

Maximum MFI value (human EGFR on cells): 5480 MFI
B12: pn10A1.m3 (VHH, not shown: small tags and cut ends)
VHH: B8 VHH with P14A, N52Q, S54T, S75T, R87K, A88P, L118Q

Maximum MFI value (human EGFR on cells): 3480 MFI
B15: zn10A1.m5 (VHH, not shown: small tags and cut ends)
VHH: QVQLVQSGPEVKKPGTSVKVSCKASGRTGSLHAMGWFRQARGQERERVATLNLSDGSAVTADSVKGRFTITTDNSKNSVYMELSSLRSEDTAVYYCTASRSPSGIRYYKPDYWGQGTMVTVSS

EC50 (human EGFR on cells): 23.2 nM
Maximum MFI value (human EGFR on cells): 93600 MFI
B17: zn5B10.m17 (VHH, not shown: small tags and cut ends)
VHH: B16 VHH with S23A, S76N, S83N, L112M
notes: Humanized anti-EGFR VHH-His

EC50 (human EGFR on cells): 1.94 nM
Maximum MFI value (human EGFR on cells): 74200 MFI
B19: zn5B10.m23 (VHH, not shown: small tags and cut ends)
VHH: B16 VHH with S21D, A87F
notes: Humanized anti-EGFR VHH-His

EC50 (human EGFR on cells): 1.15 nM
Maximum MFI value (human EGFR on cells): 86900 MFI
B20: zn5B10.m22 (VHH, not shown: small tags and cut ends)
VHH: B16 VHH with S76N, V78L, A87F
notes: Humanized anti-EGFR VHH-His
